This passage reports pKa results from paper PMC4550891.

This data set has as its target Glu286 (UniProt position 286, FFGHPEVYIIV). The data set can be described thus: kinetics.

In general, pKa refers to the pH at which an ionisable group is half protonated. In the case of “Cytochrome c oxidase (aa3-type) Ser425Ala variant (subunit I) (Rhodobacter sphaeroides; S425A)”, for the setting “~22 °C, not stated (100 mM buffer), 100 mM buffer after 1:5 mixing: MES (pH 6, 6.5), HEPES (pH 7-8), BIS-TRIS propane (pH 7-9), CHES (pH 9, 9.5), CAPS (pH 10-11). Also 0.1 mM EDTA., Fully (four-electron) reduced CytcO reacting with 1 mM O2, P3 intermediate, detergent-solubilised, no membrane potential”, the pKa is on record as greater than 10.5.
For the substance “Cytochrome c oxidase (aa3-type), subunit I carries the titrating residue (Rhodobacter sphaeroides)”, the pKa (Reduced wild-type CytcO reacting with O2, P3->F3 transition, cited from earlier work) is listed as 9.4.
